Experimental data from patent US20220356223A1.

Molecular target: human high-affinity IL2 receptor (IL2Rαβγ) (human) (UniProt P01589)
Assay: cell-based or functional assay

UniProt P01589, sequence (P01589 22-272, chain 1 of 3): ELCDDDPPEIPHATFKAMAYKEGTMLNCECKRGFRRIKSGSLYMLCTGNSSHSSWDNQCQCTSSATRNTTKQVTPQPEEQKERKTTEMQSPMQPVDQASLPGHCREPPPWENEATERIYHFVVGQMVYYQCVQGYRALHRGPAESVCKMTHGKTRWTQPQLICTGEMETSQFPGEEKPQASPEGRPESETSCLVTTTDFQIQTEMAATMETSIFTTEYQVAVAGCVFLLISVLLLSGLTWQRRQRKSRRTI
UniProt P01589, sequence (P14784 27-551, chain 2 of 3, further chain): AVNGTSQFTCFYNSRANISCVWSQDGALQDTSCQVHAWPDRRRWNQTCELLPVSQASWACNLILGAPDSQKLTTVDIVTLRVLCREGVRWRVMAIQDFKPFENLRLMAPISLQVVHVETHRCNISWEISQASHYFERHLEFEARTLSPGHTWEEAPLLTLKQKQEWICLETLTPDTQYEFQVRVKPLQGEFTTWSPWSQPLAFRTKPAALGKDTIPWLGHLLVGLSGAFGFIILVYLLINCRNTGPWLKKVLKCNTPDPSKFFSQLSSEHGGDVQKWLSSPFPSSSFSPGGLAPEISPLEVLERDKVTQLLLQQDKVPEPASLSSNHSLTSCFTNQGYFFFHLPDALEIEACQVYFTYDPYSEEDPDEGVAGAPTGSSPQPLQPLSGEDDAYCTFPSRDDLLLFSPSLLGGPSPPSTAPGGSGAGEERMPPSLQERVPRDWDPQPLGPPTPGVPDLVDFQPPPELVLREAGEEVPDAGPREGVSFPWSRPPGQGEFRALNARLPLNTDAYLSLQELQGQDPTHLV
UniProt P01589, sequence (P31785 23-369, chain 3 of 3, further chain): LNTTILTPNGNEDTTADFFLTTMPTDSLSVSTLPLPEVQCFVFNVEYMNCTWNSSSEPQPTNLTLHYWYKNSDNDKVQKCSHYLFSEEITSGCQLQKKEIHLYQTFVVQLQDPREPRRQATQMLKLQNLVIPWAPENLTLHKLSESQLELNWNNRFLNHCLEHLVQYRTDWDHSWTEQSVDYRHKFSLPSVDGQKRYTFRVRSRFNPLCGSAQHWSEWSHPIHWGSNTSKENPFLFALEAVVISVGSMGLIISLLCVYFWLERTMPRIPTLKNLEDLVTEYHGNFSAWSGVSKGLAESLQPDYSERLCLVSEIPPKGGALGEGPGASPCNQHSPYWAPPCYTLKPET

EC50, STAT5 phosphorylation, human CD4+CD25+ Treg cells (%-supernatant): 0.0311
Substance: hAlb-hIL2 (ligand)
